Experiment [1] deals with T1, soluble cynomolgus FcRH5 protein fragment (cynomolgus monkey).
T1 chain: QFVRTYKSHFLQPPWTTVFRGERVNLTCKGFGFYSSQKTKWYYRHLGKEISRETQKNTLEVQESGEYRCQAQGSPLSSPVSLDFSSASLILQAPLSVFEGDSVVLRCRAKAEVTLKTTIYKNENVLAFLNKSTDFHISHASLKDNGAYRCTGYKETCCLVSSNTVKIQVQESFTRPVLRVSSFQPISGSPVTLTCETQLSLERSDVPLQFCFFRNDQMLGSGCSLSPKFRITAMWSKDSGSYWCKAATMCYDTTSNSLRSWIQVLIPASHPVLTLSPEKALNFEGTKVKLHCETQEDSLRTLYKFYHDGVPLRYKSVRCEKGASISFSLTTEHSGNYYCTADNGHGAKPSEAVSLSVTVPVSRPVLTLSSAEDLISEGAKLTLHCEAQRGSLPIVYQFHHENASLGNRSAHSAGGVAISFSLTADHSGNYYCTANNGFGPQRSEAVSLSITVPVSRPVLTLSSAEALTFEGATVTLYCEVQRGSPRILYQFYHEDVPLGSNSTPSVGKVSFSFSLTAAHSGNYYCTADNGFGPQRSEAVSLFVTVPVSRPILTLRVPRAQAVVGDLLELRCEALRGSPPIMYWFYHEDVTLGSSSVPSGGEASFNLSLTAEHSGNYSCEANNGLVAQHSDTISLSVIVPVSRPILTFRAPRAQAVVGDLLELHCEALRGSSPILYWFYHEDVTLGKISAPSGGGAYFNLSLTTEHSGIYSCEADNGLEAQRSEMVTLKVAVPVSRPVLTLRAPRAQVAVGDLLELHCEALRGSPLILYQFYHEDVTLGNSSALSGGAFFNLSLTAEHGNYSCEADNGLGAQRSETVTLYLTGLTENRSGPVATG
Kind of experiment: BIACORE (FIG. 15). (SPR reads the build-up and loss of mass on a sensor chip optically.)

Another experiment addresses T2, human FcRH5, full-length (human, UniProt Q96RD9 16-977).
T2 sequence: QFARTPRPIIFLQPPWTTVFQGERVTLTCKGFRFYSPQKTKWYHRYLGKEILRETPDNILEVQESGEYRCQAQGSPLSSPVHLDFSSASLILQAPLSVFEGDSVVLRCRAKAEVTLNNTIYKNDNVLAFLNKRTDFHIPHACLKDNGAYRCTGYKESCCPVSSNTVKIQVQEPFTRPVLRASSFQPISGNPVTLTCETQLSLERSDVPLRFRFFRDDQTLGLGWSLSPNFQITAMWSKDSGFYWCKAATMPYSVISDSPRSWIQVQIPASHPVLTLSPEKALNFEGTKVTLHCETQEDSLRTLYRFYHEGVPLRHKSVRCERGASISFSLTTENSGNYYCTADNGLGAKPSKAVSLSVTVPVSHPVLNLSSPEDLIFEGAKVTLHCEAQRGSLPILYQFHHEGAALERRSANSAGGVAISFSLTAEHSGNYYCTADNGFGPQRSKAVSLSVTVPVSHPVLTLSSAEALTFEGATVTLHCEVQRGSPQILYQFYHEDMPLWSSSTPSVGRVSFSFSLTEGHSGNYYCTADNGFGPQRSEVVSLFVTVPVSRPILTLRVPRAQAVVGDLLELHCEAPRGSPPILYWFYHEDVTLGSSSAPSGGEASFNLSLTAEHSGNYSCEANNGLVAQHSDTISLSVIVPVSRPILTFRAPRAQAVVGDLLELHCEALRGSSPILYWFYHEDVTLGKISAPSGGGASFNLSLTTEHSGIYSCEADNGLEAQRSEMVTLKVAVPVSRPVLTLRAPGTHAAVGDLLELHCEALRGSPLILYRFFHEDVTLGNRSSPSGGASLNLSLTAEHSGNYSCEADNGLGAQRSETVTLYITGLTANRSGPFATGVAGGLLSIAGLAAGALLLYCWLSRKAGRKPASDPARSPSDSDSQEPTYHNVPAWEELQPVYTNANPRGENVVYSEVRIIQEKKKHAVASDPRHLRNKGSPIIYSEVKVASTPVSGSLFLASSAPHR
As to the kind of experiment: cell-based or functional assay.

The target in experiment [2] is T1, soluble cynomolgus FcRH5 protein …. Kind of experiment: SPR, hIgG capture, 1:1 model.
The target of experiment [3] is T3, cynomolgus monkey FcRH5, full-length (cynomolgus monkey).
T3 construct: also called cyno FcRH5; Cynomolgus FcRH5
T3 chain: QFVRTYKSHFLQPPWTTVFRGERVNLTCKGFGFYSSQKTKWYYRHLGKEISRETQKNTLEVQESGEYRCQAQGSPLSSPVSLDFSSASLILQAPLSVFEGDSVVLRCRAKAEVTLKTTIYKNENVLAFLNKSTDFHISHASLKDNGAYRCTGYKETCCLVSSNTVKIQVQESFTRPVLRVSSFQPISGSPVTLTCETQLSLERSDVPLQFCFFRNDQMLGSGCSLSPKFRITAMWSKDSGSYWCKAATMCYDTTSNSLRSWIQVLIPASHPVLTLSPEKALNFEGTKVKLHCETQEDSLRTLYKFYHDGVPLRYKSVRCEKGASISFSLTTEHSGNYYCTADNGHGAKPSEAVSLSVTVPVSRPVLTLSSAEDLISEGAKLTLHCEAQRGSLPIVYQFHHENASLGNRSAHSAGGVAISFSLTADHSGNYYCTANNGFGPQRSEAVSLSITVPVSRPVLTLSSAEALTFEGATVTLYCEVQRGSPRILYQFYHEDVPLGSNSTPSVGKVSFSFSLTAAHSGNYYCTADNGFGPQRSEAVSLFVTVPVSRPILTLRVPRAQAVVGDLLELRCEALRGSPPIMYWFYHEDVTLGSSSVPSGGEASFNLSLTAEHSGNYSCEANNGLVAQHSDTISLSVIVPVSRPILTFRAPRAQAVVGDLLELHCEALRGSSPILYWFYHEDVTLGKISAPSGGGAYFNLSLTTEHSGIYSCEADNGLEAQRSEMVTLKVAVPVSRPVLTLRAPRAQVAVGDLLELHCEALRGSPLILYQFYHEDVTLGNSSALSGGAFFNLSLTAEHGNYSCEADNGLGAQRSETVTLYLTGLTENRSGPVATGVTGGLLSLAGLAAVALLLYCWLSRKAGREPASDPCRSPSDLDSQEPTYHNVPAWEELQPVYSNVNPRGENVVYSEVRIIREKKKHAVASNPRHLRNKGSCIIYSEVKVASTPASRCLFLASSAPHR
Kind of experiment: flow cytometry, SVT2-cyno FcRH5 cells. (In general: Flow cytometry measures light scatter and fluorescence of single cells or particles in a stream.)

The target of experiment [4] is T1, soluble cynomolgus FcRH5 protein …. Kind of experiment: BIACORE, hIgG capture, 1:1 model, monovalent.

B1: 1G7.v85/38E4.v1 TDB (bispecific antibody, V domains shown)
VH 1: EVQLVESGPGLVKPSETLSLTCTVSGFSLTRFGVHWVRQPPGKGLEWLGVIWRGGSTDYNAAFVSRLTISKDNSKNQVSLKLSSVTAADTAVYYCSNHYYGSSDYALDNWGQGTLVTVSS
VL 1: DIQMTQSPSSLSASVGDRVTITCKASQDVRNLVVWFQQKPGKAPKLLIYSGSYRYSGVPSRFSGSGSGTDFTLTISSLQPEDFATYYCQQHYSPPYTFGQGTKVEIK
VH 2: EVQLVQSGAEVKKPGASVKVSCKASGFTFTSYYIHWVRQAPGQGLEWIGWIYPENDNTKYNEKFKDRVTITADTSTSTAYLELSSLRSEDTAVYYCARDGYSRYYFDYWGQGTLVTVSS
VL 2: DIVMTQSPDSLAVSLGERATINCKSSQSLLNSRTRKNYLAWYQQKPGQSPKLLIYWTSTRKSGVPDRFSGSGSGTDFTLTISSLQAEDVAVYYCKQSFILRTFGQGTKVEIK
notes: knob-into-hole full-length TDB; also called 1G7.v85 TDB; FcRH5 TDB
For orientation: Kd means the concentration at which binding is half-saturated. A word on the koff: it is a measure of how fast the partners let go of each other. In general, kon refers to the rate constant with which the complex forms. As for B1, the Kd in experiment [1] is 7800 pM. Moreover, in the experiment with human FcRH5, full-length, the “killing of MOLP-2 cells, EC50” value turned out to be 58 pM; the “killing of SVT2-FcRH5 cells, IC50, in DMSO” value amounted to 6 pM; the “killing of SVT2-FcRH5 cells, IC50, in buffer” value was found to be 7 pM; the “killing of SVT2-FcRH5 cells, IC50, with 0.1 µM dexamethasone” value turned out to be 16 pM. Also, in the experiment with human FcRH5, full-length, the “killing of SVT2-FcRH5 cells, IC50, with 1 µM dexamethasone” value was determined as 25 pM and the “killing of human bone marrow plasma cells, EC50” value is 85 to 180 pM. In addition, in experiment [2], the Kd worked out at 6800 pM, the koff stood at 0.0008 s⁻¹ and the kon was 100000 M⁻¹ s⁻¹. Also, in experiment [3], the binding result is listed as “binds”. Further, the affinity in experiment [4], expressed as Kd, was 6760 pM.

The values above are taken from patent US20220048993A1 (published 2022).
